Experimental data reported in PMC11385703.

Tests used:
[1] = biological target: Myotoxin II, biotinylated (Bothrops asper) (UniProt P24605); assay: BLI; […]) biosensors; […]; dissociation for 600 s in HEPES-MES pH 4.5; 25°C; 1:1 binding model, […]
[2] = biological target: Myotoxin II, biotinylated (Bothrops asper) (UniProt P24605); assay: BLI; […]) biosensors; […]; dissociation for 600 s in HEPES-MES pH 3.5; 25°C; 1:1 binding model, […]
[3] = biological target: Myotoxin II, biotinylated (Bothrops asper) (UniProt P24605); assay: BLI; […]) biosensors; […]; dissociation for 600 s in HEPES-MES pH 4.0; 25°C; 1:1 binding model, […]
[4] = biological target: Myotoxin II, biotinylated (Bothrops asper) (UniProt P24605); assay: BLI; […]) biosensors; […]; association in HEPES-MES pH 7.4 for 300 s, dissociation in HEPES-MES pH 5.5 for 600 s; 1:1 binding model, […]
[5] = biological target: Myotoxin II, biotinylated (Bothrops asper) (UniProt P24605); assay: BLI; […]) biosensors; […]; dissociation for 600 s in HEPES-MES pH 6.0; 25°C; 1:1 binding model, […]
[6] = biological target: Myotoxin II, biotinylated (Bothrops asper) (UniProt P24605); assay: BLI; […]) biosensors; […]; dissociation for 600 s in HEPES-MES pH 5.5; 25°C; 1:1 binding model, […]
[7] = biological target: Myotoxin II, biotinylated (Bothrops asper) (UniProt P24605); assay: BLI; […]) biosensors; […]; dissociation for 600 s in HEPES-MES pH 5.0; 25°C; 1:1 binding model, […]
[8] = biological target: Myotoxin II, biotinylated (Bothrops asper) (UniProt P24605); assay: BLI; […]) biosensors; […]; association in HEPES-MES pH 7.4 for 300 s, dissociation in HEPES-MES pH 7.4 for 600 s; 1:1 binding model, […]
[9] = biological target: Myotoxin II, biotinylated (Bothrops asper) (UniProt P24605); assay: BLI; […]) biosensors; […]; dissociation for 600 s in HEPES-MES pH 6.5; 25°C; 1:1 binding model, […]

Myotoxin II, biotinylated (Bothrops asper), sequence (P24605 17-137): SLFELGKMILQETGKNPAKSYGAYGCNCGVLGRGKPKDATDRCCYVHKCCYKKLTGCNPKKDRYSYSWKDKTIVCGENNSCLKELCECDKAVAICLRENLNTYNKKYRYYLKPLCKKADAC

B1: TPL0039_05_A03 Fab (Fab, V domains shown)
VH: QVQLVESGGGLAKPGRSLRLSCAVSGFTFSSYGMHWVRQAPGKGLEWVAVISYDGSNKYYADSVKGRFTISRDNSKNTLYLQMNSLRAEDTAVYYCASTLQQLDAFDIWGQGTMVTVSS
VL: NFMLTQPHSVSESPGKTITISCTRSSGSIASNYVQWYQQRPGSVPTPVIYEDDRRPSGVPDRFSGSIDSSSNSASLTISGLKTEDEADYYCQSYDSSSVVFGGGTKITVL
koff [1]: 0.0038 s⁻¹ | koff [2]: 0.059 s⁻¹ | koff [3]: 0.01 s⁻¹ | Kd [4]: 6.04 nM | koff [4]: 0.0011 s⁻¹ | kon [4]: 180000 M⁻¹ s⁻¹ | koff [5]: 0.00069 s⁻¹ | koff [6]: 0.0012 s⁻¹ | koff [7]: 0.0016 s⁻¹ | Kd [8]: 1.5 nM | koff [8]: 0.00031 s⁻¹ | kon [8]: 200000 M⁻¹ s⁻¹ | koff [9]: 0.00058 s⁻¹
